# Entries after “also recorded” stand apart in the source; their conditions may differ.
# B1: V9I C68R G138D F86Y A209T: rtTA variant with these amino acid substitutions (protein)
# chain: MSRLDKSKIINSALELLNGVGIEGLTTRKLAQKLGVEQPTLYWHVKNKRALLDALPIEMLDRHHTHFRPLEGESWQDFLRNNAKSYRCALLSHRDGAKVHLGTRPTEKQYETLENQLAFLCQQGFSLENALYALSAVDHFTLGCVLEEQEHQVAKEERETPTTDSMPPLLRQAIELFDRQGAEPAFLFGLELIICGLEKQLKCESGGPTDALDDFDLDMLPADALDDFDLDMLPADALDDFDLDMLPG
# B2: V9I G19M G138D F86Y A209T: rtTA variant with these amino acid substitutions (protein)
# chain: MSRLDKSKIINSALELLNMVGIEGLTTRKLAQKLGVEQPTLYWHVKNKRALLDALPIEMLDRHHTHFCPLEGESWQDFLRNNAKSYRCALLSHRDGAKVHLGTRPTEKQYETLENQLAFLCQQGFSLENALYALSAVDHFTLGCVLEEQEHQVAKEERETPTTDSMPPLLRQAIELFDRQGAEPAFLFGLELIICGLEKQLKCESGGPTDALDDFDLDMLPADALDDFDLDMLPADALDDFDLDMLPG
# B3: V9I G19M G138D F86Y: rtTA variant with these amino acid substitutions (protein)
# chain: MSRLDKSKIINSALELLNMVGIEGLTTRKLAQKLGVEQPTLYWHVKNKRALLDALPIEMLDRHHTHFCPLEGESWQDFLRNNAKSYRCALLSHRDGAKVHLGTRPTEKQYETLENQLAFLCQQGFSLENALYALSAVDHFTLGCVLEEQEHQVAKEERETPTTDSMPPLLRQAIELFDRQGAEPAFLFGLELIICGLEKQLKCESGGPADALDDFDLDMLPADALDDFDLDMLPADALDDFDLDMLPG
# B4: V9I E37Q G138D F86Y A209T: rtTA variant with these amino acid substitutions (protein)
# chain: MSRLDKSKIINSALELLNGVGIEGLTTRKLAQKLGVQQPTLYWHVKNKRALLDALPIEMLDRHHTHFCPLEGESWQDFLRNNAKSYRCALLSHRDGAKVHLGTRPTEKQYETLENQLAFLCQQGFSLENALYALSAVDHFTLGCVLEEQEHQVAKEERETPTTDSMPPLLRQAIELFDRQGAEPAFLFGLELIICGLEKQLKCESGGPTDALDDFDLDMLPADALDDFDLDMLPADALDDFDLDMLPG
# B5: V9I S12G F67S G138D F86Y: rtTA variant with these amino acid substitutions (protein)
# chain: MSRLDKSKIINGALELLNGVGIEGLTTRKLAQKLGVEQPTLYWHVKNKRALLDALPIEMLDRHHTHSCPLEGESWQDFLRNNAKSYRCALLSHRDGAKVHLGTRPTEKQYETLENQLAFLCQQGFSLENALYALSAVDHFTLGCVLEEQEHQVAKEERETPTTDSMPPLLRQAIELFDRQGAEPAFLFGLELIICGLEKQLKCESGGPADALDDFDLDMLPADALDDFDLDMLPADALDDFDLDMLPG
# B6: V9I G19M F67S G138D F86Y A209T: rtTA variant with these amino acid substitutions (protein)
# chain: MSRLDKSKIINSALELLNMVGIEGLTTRKLAQKLGVEQPTLYWHVKNKRALLDALPIEMLDRHHTHSCPLEGESWQDFLRNNAKSYRCALLSHRDGAKVHLGTRPTEKQYETLENQLAFLCQQGFSLENALYALSAVDHFTLGCVLEEQEHQVAKEERETPTTDSMPPLLRQAIELFDRQGAEPAFLFGLELIICGLEKQLKCESGGPTDALDDFDLDMLPADALDDFDLDMLPADALDDFDLDMLPG
# B7: V9I G19M F67S G138D F86Y: rtTA variant with these amino acid substitutions (protein)
# chain: MSRLDKSKIINSALELLNMVGIEGLTTRKLAQKLGVEQPTLYWHVKNKRALLDALPIEMLDRHHTHSCPLEGESWQDFLRNNAKSYRCALLSHRDGAKVHLGTRPTEKQYETLENQLAFLCQQGFSLENALYALSAVDHFTLGCVLEEQEHQVAKEERETPTTDSMPPLLRQAIELFDRQGAEPAFLFGLELIICGLEKQLKCESGGPADALDDFDLDMLPADALDDFDLDMLPADALDDFDLDMLPG
# B8: V9I E37Q G138D F86Y: rtTA variant with these amino acid substitutions (protein)
# chain: MSRLDKSKIINSALELLNGVGIEGLTTRKLAQKLGVQQPTLYWHVKNKRALLDALPIEMLDRHHTHFCPLEGESWQDFLRNNAKSYRCALLSHRDGAKVHLGTRPTEKQYETLENQLAFLCQQGFSLENALYALSAVDHFTLGCVLEEQEHQVAKEERETPTTDSMPPLLRQAIELFDRQGAEPAFLFGLELIICGLEKQLKCESGGPADALDDFDLDMLPADALDDFDLDMLPADALDDFDLDMLPG
# B9: V9I S12G F67S G138D F86Y A209T: rtTA variant with these amino acid substitutions (protein)
# chain: MSRLDKSKIINGALELLNGVGIEGLTTRKLAQKLGVEQPTLYWHVKNKRALLDALPIEMLDRHHTHSCPLEGESWQDFLRNNAKSYRCALLSHRDGAKVHLGTRPTEKQYETLENQLAFLCQQGFSLENALYALSAVDHFTLGCVLEEQEHQVAKEERETPTTDSMPPLLRQAIELFDRQGAEPAFLFGLELIICGLEKQLKCESGGPTDALDDFDLDMLPADALDDFDLDMLPADALDDFDLDMLPG
# Test system: chromosomally integrated CMV-7tetO luciferase reporter in HeLa X1/6 cells
# Assay: rtTA activity assay, HeLa X1/6 cells with integrated CMV-7tetO luciferase reporter (Example 1, FIG. 2-3, 5, 14, 15)
# Type: cell-based
# Settings: for rtTA activation by minocycline (Mc): 0-10000 ng/ml Mc; for rtTA activation by tetracycline (Tc): 0-10000 ng/ml Tc; for basal / background activity in the absence of inducer: no dox or other effector
# Source text: To test whether this rtTA optimization reflects a specific adaptation to the viral LTR-2ΔtetO promoter, we assayed rtTA activity with a reporter gene construct in which luciferase expression is under the control of a minimal CMV promoter coupled to an array of seven tetO elements. […] Thus, the observed mutations in rtTA are not virus-specific adaptations, but are general improvements of the Tet-on system. We also assayed rtTA activity in HeLa X1/6 cells that contain chromosomally integrated copies of the CMV-7tetO luciferase reporter construct (FIG. 2C). In these cells, the evolved rtTAs show a similar pattern of activity as with episomal reporter gene constructs in C33A cells. Thus, these mutations improve rtTA activity independent of the type of promoter and the episomal or chromosomal status of the target gene.
# The V10 variant needs only 44 ng/ml dox to reach this activity level, which reflects a 23-fold higher dox-sensitivity than the wild-type rtTA.
# rtTA activity assay. Two firefly luciferase reporter constructs with different promoter configurations were used. pLTR-2ΔtetO-luc contains the LTR-2ΔtetO promoter derived from the HIV-rtTA molecular clone (Marzio et al. 2001; Marzio et al. 2002). pCMV-7tetO-luc, previously named pUHC13-3 (Gossen et al. 1992), contains seven tetO elements located upstream of a minimal CMV promoter. The plasmid pRL-CMV (PROMEGA®, Madison, Wis., USA), in which the expression of Renilla luciferase is controlled by the CMV promoter, was used as an internal control to allow correction for differences in transfection efficiency.
# C33A and HeLa X1/6 cells were grown in 2-cm^2 wells to 60% confluency and transfected by the calcium phosphate precipitation method (Das et al. 1999). C33A cells were transfected with 0.4 ng pCMV-rtTA (wild-type or mutant), 20 ng pLTR-2ΔtetO-luc or pCMV-7tetO-luc, 0.5 ng pRL-CMV, and 980 ng pBluescript as carrier DNA. HeLa X1/6 cells were transfected with 8 ng pCMV-rtTA, 2.5 ng pRL-CMV, and 990 ng pBluescript. The amount of the DNA constructs was optimized for each cell type to keep rtTA-mediated transactivation within the linear range and to avoid squelching of transcription factors. Cells were cultured for 48 hours in the presence of different concentrations of dox, Tc or Mc, and lysed in Passive Lysis Buffer (PROMEGA®). Firefly and Renilla luciferase activities were determined with the dual-luciferase reporter assay (PROMEGA®). The activity of the rtTA variants was calculated as the ratio of the firefly and Renilla luciferase activities, and corrected for between-session variation.
# FIG. 2. Novel rtTA variants show increased activity and dox-sensitivity in different Tet systems. The transcriptional activity of rtTA variants was measured in C33A cells transfected with a plasmid carrying the firefly luciferase reporter gene under the control of the viral LTR-2ΔtetO promoter (LTR-2ΔtetO; A) or under the control of a minimal CMV-derived promoter coupled to seven tetO elements (CMV7-tetO; B). Furthermore, rtTA activity was measured in HeLa X1/6 cells (Baron et al. 1997) that contain a chromosomally integrated copy of the CMV-7tetO reporter construct (CMV7tetO-integrated; C, D). Variants V1 to V10 were compared in all three Tet systems (panels A-C) and variants V11 to V18 in the cells with the integrated reporter (panel D). Cells were transfected with the indicated rtTA expression plasmid or pBluescript as a negative control, and a plasmid constitutively expressing Renilla luciferase to correct for differences in transfection efficiency. Cells were cultured in the presence of different dox concentrations (0-1000 ng/ml). The ratio of the firefly and Renilla luciferase activities measured 2 days after transfection reflects the rtTA activity. All values were related to the wild-type (wt) rtTA activity at 1000 ng/ml dox, which was arbitrarily set at 100%. In (C and D), average values of three transfections are shown with error bars indicating the standard deviation.
# FIG. 3. […]
# [1] = listed as C68R V9I G138D F86Y A209T
# [2] = listed as S12G F67S V9I G138D F86Y A209T
Molecule,basal / background activity in the absence of inducer,rtTA activation by minocycline (Mc),rtTA activation by tetracycline (Tc),also measured
B1,no or low basal activity,–,–,rtTA activation by minocycline (Mc) [1]: particularly sensitive for minocycline; also recorded: very sensitive for minocycline; rtTA activation by tetracycline (Tc) [1]: particularly sensitive for tetracycline; also recorded: very sensitive for tetracycline; basal / background activity in the absence of inducer [1]: low background activity
B2,no or low basal activity,particularly sensitive for minocycline,particularly sensitive for tetracycline,–
B3,no or low basal activity,–,–,–
B4,no or low basal activity,particularly sensitive for minocycline,particularly sensitive for tetracycline,–
B5,no or low basal activity,–,–,–
B6,no or low basal activity,particularly sensitive for minocycline,particularly sensitive for tetracycline,–
B7,no or low basal activity,–,–,–
B8,no or low basal activity,–,–,–
B9,no or low basal activity,–,–,rtTA activation by minocycline (Mc) [2]: particularly sensitive for minocycline; also recorded: very sensitive for minocycline; rtTA activation by tetracycline (Tc) (listed as 512G F67S V9I G138D F86Y A209T): particularly sensitive for tetracycline; rtTA activation by tetracycline (Tc) [2]: very sensitive for tetracycline; basal / background activity in the absence of inducer [2]: low background activity
